Tests used:
[1] = molecular target: PTP-CIF3 (Trypanosoma brucei); assay: co-IP; PTP-tagged protein precipitated from T. brucei lysate with IgG-Sepharose beads, 30 min at 4°C, IP buffer, five washes; 3HA-tagged partner detected by anti-HA immunoblot; complementation lines induced with tetracycline
[2] = molecular target: CIF1 (endogenous) (Trypanosoma brucei (endogenous in T. brucei cells)); assay: co-IP; endogenous CIF1 or TbPLK precipitated from T. brucei lysate with anti-CIF1 or anti-TbPLK antibody and protein A-Sepharose beads, 30 min at 4°C, IP buffer; 3HA-tagged CIF3* and mutants detected by anti-HA immunoblot; band intensity by ImageJ, normalised to CIF1 and compared with the input

Substance | percent of the input protein immunoprecipitated [1] | percent of the input protein immunoprecipitated [2]
CIF1-3HA (ectopic, full-length CIF1) (natural protein) | 50% | –
CIF1-ΔIDR1-3HA (domain or fragment) | 24% | –
CIF1-ΔIDR2-3HA (natural protein) | 72% | –
CIF3*-3HA (full-length recoded, RNAi-resistant CIF3) (natural protein) | – | 21%
CIF3*-ΔCC1-3HA (domain or fragment) | – | 16%
CIF3*-ΔCC2-3HA (natural protein) | – | 31%
CIF3*-ΔCC3-3HA (natural protein) | – | 3%

From paper PMC9044925
